B1: full-length HIS-tagged SMYD3 recombinant protein (enzyme, human, UniProt Q9H7B4 1-428, looked up)
chain: MEPLKVEKFATAKRGNGLRAVTPLRPGELLFRSDPLAYTVCKGSRGVVCDRCLLGKEKLMRCSQCRVAKYCSAKCQKKAWPDHKRECKCLKSCKPRYPPDSVRLLGRVVFKLMDGAPSESEKLYSFYDLESNINKLTEDKKEGLRQLVMTFQHFMREEIQDASQLPPAFDLFEAFAKVICNSFTICNAEMQEVGVGLYPSISLLNHSCDPNCSIVFNGPHLLLRAVRDIEVGEELTICYLDMLMTSEERRKQLRDQYCFECDCFRCQTQDKDADMLTGDEQVWKEVQESLKKIEELKAHWKWEQVLAMCQAIISSNSERLPDINIYQLKVLDCAMDACINLGLLEEALFYGTRTMEPYRIFFPGSHPVRGVQVMKVGKLQLHQGMFPQAMKNLRLAFDIMRVTHGREHSLIEDLILLLEECDANIRAS
notes: SMYD3 (lysine methyltransferase SET and MYND Domain Containing 3), full length, from the plasmid pET28-MHL-SMYD3 (Addgene 32048); no species is printed for the Addgene plasmid; also called HIS-SMYD3; HIS-SMYD3 fusion protein; source: E. coli BL21 (DE3), purified (Dynabeads HIS-Tag Isolation and Pulldown)
B2: FLAG c-MYC M3 (aa 1-165) (domain or fragment, human, UniProt P01106-2 1-165, looked up)
chain: MDFFRVVENQQPPATMPLNVSFTNRNYDLDYDSVQPYFYCDEEENFYQQQQQSELQPPAPSEDIWKKFELLPTPPLSPSRRSGLCSPSYVAVTPFSLRGDNDGGGGSFSTADQLEMVTELLGGDMVNQSFICDPDDETFIKNIIIQDCMWSGFSAAAKLVSEKLA
notes: c-MYC, human, residues 1-165 of the 454-residue form; amplified from p3xFLAG CMV14 c-MYC-WT, itself made from pcDNA3-c-MYC (Addgene 16011); Vector p3xFLAG-CMV14 (Sigma E7908); also called p3xFLAG CMV14 c-MYC-M3
B3: P14 ext1 (E42EENFYQQQ50) (peptide)
peptide: EEENFYQQQ
notes: numbers count on the 454-residue isoform; source: bought: custom purchased from Thermo Fisher Scientific
B4: P14 ext2 (P36YFYCDEEENFYQQQQQSEL55) (peptide)
peptide: PYFYCDEEENFYQQQQQSEL
notes: as for B3

Experiments:
Conditions in all cases: both partners purified
[1] = biological target: T1, untagged human full-length c-MYC protein (human, UniProt P01106-2 1-454); test: pull-down; HIS-SMYD3 incubated with recombinant c-MYC or FLAG c-MYC fragments for 1 h at 4 °C, precipitated with Dynabeads HIS-Tag Isolation and Pulldown, washed in buffer A (20 mM Tris-HCl pH 8, 150 mM KCl, 5 mM MgCl2, 0.2 mM EDTA, 10% glycerol, 0.1% NP-40, 1 mM DTT), immunoblot
T1 construct: c-MYC, human, full length, untagged; also called c-MYC recombinant protein; untagged recombinant c-MYC protein; source: bought: Abcam ab169901, expressed in E. coli

[2] = biological target: B1; test: as above
[3] = biological target: B1; test: pull-down; competition assay: 500 ng HIS-SMYD3 and 200 ng untagged full-length c-MYC, 1 h at 4 °C, with escalating doses (0, 1, 5, 25, 125 µM) of P14, P14ext1 or P14ext2; precipitated on histidine beads, immunoblot with anti-c-MYC and anti-HIS

Binder	binding result [3]	further results
B1	–	binding result [1]: binds
B2	–	binding result [2]: binds
B3	binds	–
B4	binds	–

Source: publication PMC12209437, “Tailoring a novel colorectal cancer stem cell-targeted therapy by inhibiting the SMYD3/c-MYC axis” (Signal Transduction and Targeted Therapy, 2025)
